Measurements: patent WO2022194311A2

Assays:
Experiment in all cases: SPR (Biacore 8K), His-tagged FcRn captured by anti-His antibody on CM5 chip, pH 6.0
rat FcRn (rat) = rat FcRn (rat) (UniProt P13599)
[1] = target: cynomolgus monkey FcRn (cynomolgus monkey) (UniProt Q8SPV9)
human FcRn (human) = human FcRn (human) (UniProt P55899)

Measured: Kd

Chain of cynomolgus monkey FcRn (cynomolgus monkey) (Q8SPV9 24-297 limits assumed, form in doubt): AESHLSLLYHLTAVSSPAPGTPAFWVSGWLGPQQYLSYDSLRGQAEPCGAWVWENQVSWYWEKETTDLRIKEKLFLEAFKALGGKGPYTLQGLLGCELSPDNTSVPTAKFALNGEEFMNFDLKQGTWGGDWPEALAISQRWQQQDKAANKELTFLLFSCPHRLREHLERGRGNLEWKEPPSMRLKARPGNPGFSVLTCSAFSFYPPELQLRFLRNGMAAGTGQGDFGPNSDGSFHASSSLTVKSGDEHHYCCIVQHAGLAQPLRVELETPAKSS
Chain of rat FcRn (rat) (P13599 23-298 limits assumed, form in doubt): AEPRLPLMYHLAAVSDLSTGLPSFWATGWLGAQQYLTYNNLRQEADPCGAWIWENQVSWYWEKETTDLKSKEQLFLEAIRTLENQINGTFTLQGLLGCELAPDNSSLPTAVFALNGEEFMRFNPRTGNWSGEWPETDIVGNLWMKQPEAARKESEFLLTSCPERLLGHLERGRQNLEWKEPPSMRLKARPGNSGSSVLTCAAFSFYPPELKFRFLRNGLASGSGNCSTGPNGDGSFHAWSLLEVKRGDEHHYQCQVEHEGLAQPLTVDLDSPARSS
Chain of human FcRn (human) (P55899 24-297 limits assumed, form in doubt): as the sequence (Q8SPV9 24-297 limits assumed, form in doubt) above, with D39N, Q44E, S99G, G189S, N190S, M217L, T269S counted along it

secukinumab (Cosentyx) (antibody)
10 nM: all assays above
